Measured values as given in patent US20240325556A1, “Methods of Using Antibody-Drug-Conjugates” (priority 2021, published 2024).
Like-named read-outs stand apart in the source and are kept apart here. Square brackets hold non-standard residues; d marks the D form. Peptide text beside a SMILES is read from it. * marks the point of attachment. Dolaproine = CO[C@@H]([C@@H]1CCCN1)[C@@H](C)C(=O)O; Dil = CC[C@H](C)[C@H](NC)[C@@H](CC(=O)O)OC; X1 = C[C@@H](N*)[C@@H](O)c1ccccc1; NMeV = CN[C@H](C(=O)O)C(C)C

Tests used:
[1] = test system: NCI-H1781 cells; test: In vitro cytotoxicity assay against nectin-4-expressing cell line NCI-H1781; type: cell-based; settings: for IC50: NCI-H1781 cells, 5 days incubation, CellTiter-Glo viability, read-out: Absolute IC50
Method: Cell lines were plated on Day −1 in 96-well plates (Corning #3603) at a density of 4×10^3 cells/well in 100 μL of growth media and cultured overnight. On Day 0, serial dilution of test samples was performed in growth media at 6× the final concentration and 20 μL was added to the cells. After incubation at 37° C. with 5% CO2 for 5 days, viability was measured using Promega CellTiter-Glo® according to the manufacturer's recommendations.
Methods: Free payloads (MMAE and camptothecin) and nectin-4 ADCs carrying either MMAE, camptothecin, or maytansine were produced and tested in an in vitro cytotoxicity assay against the nectin-4-expressing cell line, NCI-H1781 (FIG. 1).

[2] = test system: Male Sprague-Dawley rats; test: Non-GLP rat toxicology study of nectin-4 ADCs; type: in vivo; settings: 4 doses
Method: (§1) Male Sprague-Dawley rats (8-9 wk old at study start, 5 animals/group) were dosed intravenously with either vehicle alone or with nectin-4 conjugates made using antibodies carrying the variable regions of the rat cross-reactive antibody, enfortumab. The tested ADCs were nectin-4 vedotin (dosed at 10 mg/kg), and nectin-4 CH1/CT RED-106 (dosed at either 10 or 20 mg/kg). Dosing occurred weekly for a total of 4 doses (days 1, 8, 15, and 22). […] Body weights were recorded four times/week. Blood was collected from all animals for clinical pathology on days 5, 12, 19, and 26, and for toxicokinetic analysis at 8 h and days 4 and 7 post-dose (for all doses). Clinical observations were conducted daily.
Methods: Rat cross-reactive nectin-4 ADCs carrying either RED-106 or vedotin linker-payloads were prepared (DAR depicted in FIGS. 8A-8D) and tested in a rat toxicity study.

[3] = Toxicokinetic analysis of rat plasma samples (total antibody and total ADC ELISA); type: in vivo; settings: repeat dose toxicity study, listed as RED-106 conjugate
Method: as §1
Methods: Total antibody and total ADC concentrations were quantified by ELISA as previously described and diagrammed in the figure. For total antibody, conjugates were captured with an anti-human IgG-specific antibody and detected with an HRP-conjugated anti-human Fc-specific antibody. For total ADC, conjugates were captured with an anti-human Fab-specific antibody and detected with a mouse anti-maytansine primary antibody, followed by an HRP-conjugated anti-mouse IgG-subclass 1-specific secondary antibody. Bound secondary antibody was detected using Ultra TMB One-Step ELISA substrate (Thermo Fisher). […] Data were analyzed using GraphPad Prism and Microsoft Excel software.

[4] = 10 mg/kg weekly for four doses; cited from earlier work
[5] = preclinical and clinical effects; cited from earlier work

With N.N.[Cl][Pt][Cl] [Cisplatin] the IC50 [1] was 230 nM.

Work on CC[C@@]1(O)C(=O)OCc2c1cc1n(c2=O)Cc2cc3ccccc3nc2-1 [Free Camptothecin, camptothecin] yielded an IC50 ([1]; 120 h) of 1 nM.

For CC[C@H](C)[C@@H]([C@@H](CC(=O)N1CCC[C@H]1[C@H](OC)[C@@H](C)C(=O)N[C@H](C)[C@@H](O)c1ccccc1)OC)N(C)C(=O)[C@@H](NC(=O)[C@@H](NC)C(C)C)C(C)C [Free MMAE, monomethyl auristatin E] (H-[NMeV]V[Dil][Dolaproine]-X1), the IC50 [1] was 0.3 nM.

For “Nectin-4 CH1/CT RED-106: nectin-4 ADC with variable regions of enfortumab, CH1/CT aldehyde-tagged, carrying RED-106 maytansine linker-payload”, the IC50 [1] was 1 nM, the “In vitro potency of RED-106 conjugate compared with MMAE conjugate” value ([1]; NCI-H1781 target cell line) was “similar” and the Mortality ([2]; 10 or 20 mg/kg i.v. weekly) was “no mortalities”. The “Signs of fur/skin toxicity compared with vedotin conjugate” value ([2]; 10 or 20 mg/kg i.v. weekly) was “fewer signs of fur/skin toxicity” and the “In vivo stability of the conjugate compared with the vedotin ADC” value [3] was “improved in vivo stability”.

For “nectin-4 vedotin: nectin-4 conjugate with enfortumab variable regions, untagged antibody conjugated with maleimide-valcit-MMAE [reference compound]”, the “Clinical signs of toxicity in fur and skin” value ([2]; 10 mg/kg i.v. weekly) is listed as “all animals exhibited clinical signs of toxicity in fur and skin”, the “Animals euthanized in distress” value ([2]; 10 mg/kg i.v. weekly, 5 animals/group) is listed as 1 animal and the “Toxicity noted in previous reports” value [4] is listed as “fur and skin toxicity and mortality”.

B1: DS-1062 (conjugate, chains of the INN, looked up)
VH: QVQLVQSGAEVKKPGASVKVSCKASGYTFTTAGMQWVRQAPGQGLEWMGWINTHSGVPKYAEDFKGRVTISADTSTSTAYLQLSSLKSEDTAVYYCARSGFGSSYWYFDVWGQGTLVTVSS
VL: DIQMTQSPSSLSASVGDRVTITCKASQDVSTAVAWYQQKPGKAPKLLIYSASYRYTGVPSRFSGSGSGTDFTLTISSLQPEDFAVYYCQQHYITPLTFGQGTKLEIK
modifications: deruxtecan payload
In the case of B1, the “Toxicity noted in previous reports” value [5] is listed as “skin and mucosal toxicity”.
